Experimental findings from the supplement of paper PMC9112550, “Optimization of the antimicrobial peptide Bac7 by deep mutational scanning” (BMC Biology, 2022) are described below.
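Note: peptides expressed intracellularly from a pBAD plasmid library in pooled LB shake-flask culture, induced with 0.3% L-arabinose, DNA abundance read by NGS, three biological replicates, DESeq2 with apeglm shrinkage.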

In this data set the test system is Escherichia coli TOP10. In words: shrunken log2 fold change of peptide-encoding DNA abundance (4.5 h post-induction vs induction); higher = less antimicrobial activity (less host growth inhibition). The following applies: time post-induction: 4.5 h; library: site-saturation at positions 5, 18, 19, 20.
For the sequence RRIRKRPPRLPRPRPRPNWVPRP, the “shrunken log2 fold change” value is -0.087. The same measure for RRIRPRPPRLPRPRPRPPKKPRP: 0.0716. In the case of RRIRNRPPRLPRPRPRPEVYPRP it was 0.0702.

Take RRIRSRPPRLPRPRPRPHKLPRP: the “shrunken log2 fold change” value is -0.228.

For the sequence RRIRMRPPRLPRPRPRPFHWPRP, the “shrunken log2 fold change” value was -0.184. Turning to RRIRYRPPRLPRPRPRPCNIPRP, the “shrunken log2 fold change” value is -0.463. On to RRIRSRPPRLPRPRPRPCWNPRP, for which the “shrunken log2 fold change” value is -0.296. The same measure for RRIRRRPPRLPRPRPRPDCQPRP: -0.00305.

Take RRIRVRPPRLPRPRPRPTEQPRP: the “shrunken log2 fold change” value came to 0.0304. The same measure for RRIRYRPPRLPRPRPRPNPSPRP: -0.0272; for RRIRLRPPRLPRPRPRPEHCPRP: 0.0119. In the case of RRIRGRPPRLPRPRPRPYHHPRP it was -0.176; in that of RRIRCRPPRLPRPRPRPRLNPRP, 0.00503. The same measure for RRIRKRPPRLPRPRPRPRFAPRP: 0.614; for RRIRMRPPRLPRPRPRPYHPPRP: -0.423; for RRIRGRPPRLPRPRPRPAVPPRP: 0.686. For the sequence RRIRVRPPRLPRPRPRPNPWPRP, the “shrunken log2 fold change” value is -0.0698. Turning to RRIRGRPPRLPRPRPRPLRYPRP, the “shrunken log2 fold change” value amounted to 0.688. Regarding RRIRGRPPRLPRPRPRPDWRPRP, the “shrunken log2 fold change” value is 0.404. The same measure for RRIRQRPPRLPRPRPRPMAEPRP: 0.0238. The same measure for RRIRVRPPRLPRPRPRPCYAPRP: -0.162; for RRIRHRPPRLPRPRPRPFFPPRP: -0.285. In the case of RRIRHRPPRLPRPRPRPHPAPRP it was 0.21; in that of RRIRTRPPRLPRPRPRPLYIPRP, -0.998; in that of RRIRIRPPRLPRPRPRPPWGPRP, 0.0517.

In the case of RRIRGRPPRLPRPRPRPLGTPRP, the “shrunken log2 fold change” value turned out to be 0.736. In the case of RRIRSRPPRLPRPRPRPVYGPRP it was -0.355; in that of RRIRERPPRLPRPRPRPDAGPRP, -0.0396; in that of RRIRERPPRLPRPRPRPHFYPRP, -0.0121.

On to RRIRWRPPRLPRPRPRPRHDPRP, for which the “shrunken log2 fold change” value was determined as 0.107. For RRIRYRPPRLPRPRPRPSLTPRP, the “shrunken log2 fold change” value was -0.628. For the sequence RRIRLRPPRLPRPRPRPPAHPRP, the “shrunken log2 fold change” value is 0.445. Regarding RRIRNRPPRLPRPRPRPWFTPRP, the “shrunken log2 fold change” value was -0.786. For the sequence RRIRKRPPRLPRPRPRPGFSPRP, the “shrunken log2 fold change” value is 0.297.

For the sequence RRIRSRPPRLPRPRPRPCELPRP, the “shrunken log2 fold change” value was 0.0778.

In the case of RRIRMRPPRLPRPRPRPIALPRP, the “shrunken log2 fold change” value was 0.0271. In the case of RRIRCRPPRLPRPRPRPFDAPRP it was 0.0524. For RRIRSRPPRLPRPRPRPGLTPRP, the “shrunken log2 fold change” value was 0.264. RRIRARPPRLPRPRPRPIYVPRP: the “shrunken log2 fold change” value is -0.25. In the case of RRIRSRPPRLPRPRPRPLGEPRP, the “shrunken log2 fold change” value amounted to 0.175. In the case of RRIRMRPPRLPRPRPRPHTIPRP it was 0.0593; in that of RRIRCRPPRLPRPRPRPSSWPRP, -0.251. The same measure for RRIRFRPPRLPRPRPRPDMVPRP: -0.499. The same measure for RRIRERPPRLPRPRPRPALYPRP: -0.129; for RRIRNRPPRLPRPRPRPQGSPRP: -0.0968; for RRIRRRPPRLPRPRPRPGQSPRP: 0.155. On to RRIRMRPPRLPRPRPRPPSYPRP, for which the “shrunken log2 fold change” value was found to be 0.358. For the sequence RRIRYRPPRLPRPRPRPNPKPRP, the “shrunken log2 fold change” value is -0.0294. Turning to RRIRDRPPRLPRPRPRPLGHPRP, the “shrunken log2 fold change” value turned out to be 0.0421.

On to RRIRCRPPRLPRPRPRPKNCPRP, for which the “shrunken log2 fold change” value came out at 0.0619. In the case of RRIRNRPPRLPRPRPRPIIEPRP, the “shrunken log2 fold change” value stood at 0.00312.

For RRIRCRPPRLPRPRPRPLKIPRP, the “shrunken log2 fold change” value is -0.511. Take RRIRERPPRLPRPRPRPMSIPRP: the “shrunken log2 fold change” value is -0.239. The same measure for RRIRCRPPRLPRPRPRPHVVPRP: -0.137; for RRIRMRPPRLPRPRPRPFISPRP: -0.4. In the case of RRIRLRPPRLPRPRPRPQFEPRP, the “shrunken log2 fold change” value is -0.12.

Consider RRIRKRPPRLPRPRPRPLKEPRP, for which the “shrunken log2 fold change” value turned out to be 0.0921. RRIRPRPPRLPRPRPRPCTAPRP: the “shrunken log2 fold change” value was -0.109. In the case of RRIRIRPPRLPRPRPRPLHRPRP it was -0.307; in that of RRIRLRPPRLPRPRPRPGMFPRP, -0.322; in that of RRIRVRPPRLPRPRPRPEAQPRP, 0.112. Take RRIRVRPPRLPRPRPRPEADPRP: the “shrunken log2 fold change” value stood at 0.0974. Take RRIRSRPPRLPRPRPRPFGVPRP: the “shrunken log2 fold change” value was -0.448. In the case of RRIRQRPPRLPRPRPRPKMVPRP it was -0.0201; in that of RRIRHRPPRLPRPRPRPQIQPRP, -0.0515.

With RRIRKRPPRLPRPRPRPDAMPRP, the “shrunken log2 fold change” value was found to be 0.618. In the case of RRIRGRPPRLPRPRPRPMYKPRP it was 0.0271; in that of RRIRGRPPRLPRPRPRPYIGPRP, 0.018; in that of RRIRTRPPRLPRPRPRPYKMPRP, -0.0239. Consider RRIRWRPPRLPRPRPRPWAGPRP, for which the “shrunken log2 fold change” value came to 0.167. On to RRIRWRPPRLPRPRPRPGQVPRP, for which the “shrunken log2 fold change” value was -0.0635. RRIRERPPRLPRPRPRPAWYPRP: the “shrunken log2 fold change” value was -0.179. In the case of RRIRERPPRLPRPRPRPKYWPRP it was -0.202. In the case of RRIRCRPPRLPRPRPRPKTCPRP it was -0.211.

As for RRIRRRPPRLPRPRPRPVVAPRP, the “shrunken log2 fold change” value amounted to 0.43.

Turning to RRIRCRPPRLPRPRPRPAYNPRP, the “shrunken log2 fold change” value is -0.619. In the case of RRIRARPPRLPRPRPRPQQPPRP it was 0.0738. Turning to RRIRVRPPRLPRPRPRPYFPPRP, the “shrunken log2 fold change” value was 0.109.

As to RRIRSRPPRLPRPRPRPKNHPRP, the “shrunken log2 fold change” value was -0.215. Take RRIRQRPPRLPRPRPRPNRIPRP: the “shrunken log2 fold change” value was -0.0402. Consider RRIRKRPPRLPRPRPRPDPCPRP, for which the “shrunken log2 fold change” value worked out at 0.312. In the case of RRIRVRPPRLPRPRPRPNRSPRP it was -0.0169. In the case of RRIRHRPPRLPRPRPRPNKTPRP it was -0.0741; in that of RRIRIRPPRLPRPRPRPINSPRP, -0.619; in that of RRIRRRPPRLPRPRPRPPGCPRP, 0.417. The same measure for RRIRIRPPRLPRPRPRPLWVPRP: 0.0248; for RRIRSRPPRLPRPRPRPIFHPRP: -0.29; for RRIRWRPPRLPRPRPRPMYWPRP: 0.0085. RRIRERPPRLPRPRPRPAQKPRP: the “shrunken log2 fold change” value is 0.192. On to RRIRNRPPRLPRPRPRPNKIPRP, for which the “shrunken log2 fold change” value is -0.658.

As to RRIRARPPRLPRPRPRPFNSPRP, the “shrunken log2 fold change” value was -0.0353.

RRIRMRPPRLPRPRPRPHGRPRP: the “shrunken log2 fold change” value is -0.0383. The same measure for RRIRQRPPRLPRPRPRPPDHPRP: -0.27; for RRIRWRPPRLPRPRPRPRDEPRP: 0.0548. For RRIRVRPPRLPRPRPRPGPRPRP, the “shrunken log2 fold change” value is 0.791. Turning to RRIRSRPPRLPRPRPRPINYPRP, the “shrunken log2 fold change” value was -0.336. Take RRIRLRPPRLPRPRPRPWRDPRP: the “shrunken log2 fold change” value is -0.252. In the case of RRIRERPPRLPRPRPRPKSNPRP it was -0.472; in that of RRIRTRPPRLPRPRPRPCCRPRP, 0.0338; in that of RRIRDRPPRLPRPRPRPMNMPRP, -0.308. In the case of RRIRGRPPRLPRPRPRPCHHPRP it was -0.00543. On to RRIRPRPPRLPRPRPRPHVEPRP, for which the “shrunken log2 fold change” value is 0.107. The same measure for RRIRVRPPRLPRPRPRPWWKPRP: 0.0375.

Turning to RRIRVRPPRLPRPRPRPVPAPRP, the “shrunken log2 fold change” value is 0.391.

With RRIRNRPPRLPRPRPRPPFEPRP, the “shrunken log2 fold change” value was found to be 0.128.

Regarding RRIRIRPPRLPRPRPRPNLHPRP, the “shrunken log2 fold change” value is -0.623. In the case of RRIRSRPPRLPRPRPRPWRPPRP it was 0.0563.

Take RRIRNRPPRLPRPRPRPANAPRP: the “shrunken log2 fold change” value worked out at 0.259. As for RRIRLRPPRLPRPRPRPFGGPRP, the “shrunken log2 fold change” value is -0.334. As to RRIRHRPPRLPRPRPRPYKDPRP, the “shrunken log2 fold change” value is -0.017. In the case of RRIRYRPPRLPRPRPRPVGDPRP it was -0.0659; in that of RRIRGRPPRLPRPRPRPKIEPRP, 0.566; in that of RRIRARPPRLPRPRPRPSSRPRP, -0.167. The same measure for RRIRQRPPRLPRPRPRPDYNPRP: -0.161.

As to RRIRKRPPRLPRPRPRPNQHPRP, the “shrunken log2 fold change” value stood at 0.0449. In the case of RRIRVRPPRLPRPRPRPCSVPRP it was -0.0384. In the case of RRIRYRPPRLPRPRPRPGWMPRP it was -0.000507; in that of RRIRCRPPRLPRPRPRPFFGPRP, 0.0829. In the case of RRIRLRPPRLPRPRPRPVVWPRP, the “shrunken log2 fold change” value stood at 0.547. With RRIRRRPPRLPRPRPRPFSQPRP, the “shrunken log2 fold change” value was -0.422. The same measure for RRIRSRPPRLPRPRPRPANRPRP: 0.223. As to RRIRARPPRLPRPRPRPTMAPRP, the “shrunken log2 fold change” value was found to be 0.6.

Regarding RRIRGRPPRLPRPRPRPFPQPRP, the “shrunken log2 fold change” value is 0.717.

Take RRIRIRPPRLPRPRPRPDYMPRP: the “shrunken log2 fold change” value was -1.09. The same measure for RRIRNRPPRLPRPRPRPHQPPRP: 0.0075.
